Source: US11497796B2, “Agents directed against a cis RGMa/neogenin interaction or lipid rafts and use of the same in methods of treatment” (UNIVERSITY HEALTH NETWORK, priority 2013, dated 2022)

Legend:
[1] = test system: injured spinal cord; assay: Spinal cord injury, immunostaining and quantitative analysis (NeuN, GFAP, lesion volume); format: in vivo, rat; conditions: for lesion volume compared to controls: rat, in vivo; for increase in number of peri-lesional neurons (NeuN) compared to controls: systemic application for 6 weeks
[2] = test system: spinal cord injured rats; assay: Spinal cord injury (clip compression), functional analysis (BBB, motor subscore, ladder-walk); format: in vivo, rat; conditions: for functional recovery (BBB score and motor subscore) compared to controls: 4Ig IV or MβCD IP
Procedure: The spinal cord was injured by clip compression at spinal cord level T8 with a 20 g force. The 4Ig or vehicle was injected intraspinally immediately following SCI. 2 injections (250 ng/μL, 3 μL each) were made 1 mm rostral and 1 mm caudal to the lesion site and adjacent to the midline vein. Immediately following SCI, the 4Ig treated rats also received a 1 mg/kg dose of 4Ig intravenously (i.v.) via the intrajugular vein and subsequent i.v. injections weekly for 2 more weeks. Rats in the MβCD group received intraperitoneal (i.p.) injection of MβCD at 1000 mg/kg/week immediately following SCI and then daily i.p. injections until sacrifice. Control rats received equivalent vehicle volumes as described above.
To assess local delivery of 4Ig, 19 adult female Wistar rats were injured and injected rostral and caudal to the lesion site with 4Ig or PBS. Immediately after the intraspinal injections, 4Ig or PBS was delivered intrathecally and then continuously for 14 days (0.5 μL/hour) via the catheter and pump system.
Functional tests were performed before the injury, 1 day, and then weekly for 6 weeks post-SCI. Locomotor function was evaluated using the BBB locomotor rating scale. A score of 0 indicates no hindlimb movement, a score of 21 indicates unimpaired locomotion as observed in Control. Motor subscores were determined to assess toe clearance, predominant paw position and absence of instability. A maximal motor subscore of 7 means normal locomotion.
Ladder-walk analysis was done to assess fine motor functions. At 1 week post-SCI and weekly thereafter, rats with a BBB score greater than 10 were placed on the horizontal ladder-walk apparatus and 3 test runs were recorded. Recordings were analyzed in slow motion; the number of footfalls per hindlimb was recorded and the average was calculated for each rat per week.
Pre-operatively, 32 adult female Wistar rats (Charles River, St. Constant, QC, 200-300 g) were acclimatized and trained for baseline behavioral assessment. Rats were divided into 4 groups (n=8/group): 1) MBCD (i.p.); 2) vehicle control (i.p); 3) 4Ig (i.v. and intraspinal); 4) vehicle control (i.v. and intraspinal). Rats were anesthetized by inhalation of 2% isofluorane in combination with a mixture of nitrous oxide and oxygen (1:2, v/v). The spinal cord was exposed by laminectomy and a clip compression injury was made at spinal cord level T8 with a 20 g force. This was a clinically relevant model of SCI reflecting human pathology. n the 4Ig and equivalent control group, 4Ig or vehicle was injected intraspinally immediately following SCI. A total of 2 injections (250 ng/μL, 3 μL each) were made 1 mm rostral and 1 mm caudal to the lesion site and adjacent to the midline vein. Injections were made stereotactically with the aid of an operating microscope using a motorized microinjector at a rate of 1.5 μl/min with a 10 μl Hamilton syringe and a customized 32 G needle. The needle was left in place for an additional 2 min after injection to prevent leakage. The overlying muscle and skin were sutured with 3-0 vicryl sutures (Johnson and Johnson, Peterborough ON, Canada).
Immediately following SCI, the 4Ig treated rats also received a 1 mg/kg dose of 4Ig i.v. via the intrajugular vein and subsequent i.v. injections weekly for 2 more weeks. Rats in the MβCD group received intraperitoneal injection of MβCD at 1000 mg/kg/week immediately following SCI and then daily i.p. injections until sacrifice. Control rats received equivalent volumes as described above. Bladders were evacuated manually 3 times daily until spontaneous voiding was established, and hematuria or urinary tract infection was treated with Clavomax (62.5 mg PO BID for 7 days). The rats were housed singly in a temperature-controlled room at 26° C. with a 12 hour light/dark cycle. Water and food were provided ad libitum. […]

[3] = test system: retinal axons (axonal pathfinding); assay: In ovo electroporation and DiI tracing of axonal paths; format: in vivo, chick; conditions: ectopic expression in the eye at E2
Procedure: Eggs (White Leghorn) were incubated at 38° C. in a high humidity chamber. A small amount of viral solution (viral titers of 1×10^8 IU/ml) was mixed with 1/10 volume of 0.25% fast green solution (Molecular Probes) and injected in the tectum at E1.5. Eggs were further incubated until E15, when a small DiI crystal (Molecular Probes) was placed in the temporo-dorsal part of the right eye. At E17, embryos were sacrificed and the tecta fixed in 4% PFA. DiI tracing was viewed under the microscope (Olympus BX61) after cutting the tecta in half. Digital Images of the tecta were taken and processed using Photoshop (Adobe). Alternatively, plasmid constructs were electroporated into the optic vesicle to restrict expression to the eye and tracing performed as above.
To study the effect of the interaction between 4Ig and N-Raft on axonal paths in vivo, 4Ig, N-Raft, and the control NRGMa^50-99 were ectopically expressed and axonal pathfinding was examined. To ensure that the treatments affected growing axons and not their environment, when electroporation was performed, the application of the electric field was narrowed to the optic vesicle at E2, thereby restricting expression to the eye and retinal axons (FIG. 3G).

[4] = test system: Neogenin-induced apoptosis in chick tecta; assay: TUNEL assay after Neogenin electroporation; format: in vivo; conditions: injected into tecta after Neogenin electroporation; for number of TUNEL+ cells: without agent 432±23
Procedure: (A) HEK293 cells that stably express RGMa (FIG. 11) were transfected with empty plasmid (Ctrl) or Neogenin (Neo). Neogenin induced cell death (arrows) when compared to control. (B) Quantification of cell death in Neogenin-transfected cells that were incubated in BSA (Neo+Ctrl), 4Ig (1 μg/ml), N-Raft (1 μg/ml), Noggin (100 nM), or MβCD (10 mM). […] Data were average±SEM (n=3 independent experiments), *p<0.0001. (C) Representative images and (D) Quantification of cell death in chick E5 tecta electroporated with GFP- and a Neogenin-expression plasmid and then injected with N-RGMa50-99 (Ctrl; 1 μg/ml), 4Ig (1 μg/ml), or N-Raft (1 μg/ml) and subjected to TUNEL assay. […] Data were an average±SEM from 3 different tecta/conditions (*p<0.001). Bar, 100 μm. (E) Representative images and (F) Quantification of retinal whole mounts incubated for 4 days with control peptide (1 μg/ml), 4Ig (1 μg/ml), N-Raft (1 μg/ml), or MβCD (10 mM) and dead cells were stained with Propidium Iodide (PI). Images from 9 whole mounts per condition from 3 independent experiments were taken at the same intensities and the fluorescence measured using ImageJ. […] Bar, 500 μm. (G) Fluorescence micrographs of flat-mounted retinas depicting Fluorogold-labeled retinal ganglion cells (RGCs) in injured retinas at 14 days following axotomy. Control retinas (Ctrl) had few surviving RGCs. 4Ig, N-raft or MβCD increased cell survival. Bar, 200 μm. (H) Representations of the retinal areas selected in our analyses. […] Data were average±SEM (n=6 eyes), *p<0.01.
RGMa was expressed in the developing chick neural tube, and thus, to determine if Neogenin required lipid rafts for its pro-death function in vivo, apoptosis was examined in the neural tubes of chick embryos (E2). Specifically, a GFP-construct was electroporated with plasmids that expressed either Mock or Neogenin and apoptosis was assayed by TUNEL staining.

“methyl-β-cyclodextrin [MβCD, reference compound]” was tested, and the “lesion volume compared to controls” value [1] was “did not significantly vary”, the “increase in number of peri-lesional neurons (NeuN) compared to controls” value [1] was “about 2 fold” and the “functional recovery (BBB score and motor subscore) compared to controls” value ([2]; as early as 2-3 weeks post-SCI) was “significant functional recovery”. For the same molecule, the “improvement of locomotor recovery vs. control” value ([2]; older animals (greater than 7 month), post-SCI) was “+6.8 BBB points”.

“N-Raft: peptide spanning amino acids 28-73 of RGMa (SEQ ID NO:2) (SPCKILKCNSEFWAATSGSHHLGAEETPEFCTALRAYAHCTRRTAR; N-Raft - amino acids 28-73 of RGMa)” was tested, and the “electroporations that caused aberrant axonal paths” value [3] was 85.7%, the “reduction of the number of TUNEL+ cells” value [4] was “about 4 fold” and the “number of TUNEL+ cells” value [4] was 103±8.

B1: 4Ig: four immunoglobulin-like domains of Neogenin, amino acids 1 to 383 of Accession No. AAC59662 (SEQ ID NO:1) (protein, listed as Gallus gallus)
chain: RSGPRSPLTGSVVRTFTPFYFLVEPMDILSVRGASVIMNCSSYCETPPKIEWKKDGTLLNLVSDDRRQLLPDGSLLINSVVHSKHNKPDEGYYQCVATVESLGSIVSRTAKLTVAGLPRFTSQPELSSVYKGNSAILNCEVNVDLAPFVRWEQDRQPLSLDDRVFKLPSGALLIGNATDTDGGFYRCVIESGGTPKYSEEAELKILPDPEEPQSLVFVRQPSSLTKVTGQNAVFPCVAGGFPTPYVRWTKNGEELITEDSERFALRAGGSLLISDVTEEDVGTYTCIADNENETIEAQAELAVQVPPEFLKRPANIYAHESMDIVFECEVTGKPTPTVKWVKNGDVVIPSDYFKIVKEHNLQVLGLVKSDEGFYQCIAENDVGNAQAGAQLIILDLDVAIPTLPPTSLTSATNDHLAPATTGPLPTAPRDVVATLVSTRFIRLTWRTPVSDPQGDNLTYSIFYTKEGINRERVENTSRPGETQVMIQNLMPETVYVFRVVAQNKHGHGESSAPLKVATQPEVQLPGPAPNIRAYAGSPTSVTVTWETPLSGNGEIQNYKLYYMEKGQDSEQDVDVAGLSYTITGLKKYTEYSFRVVAYNKHGPGVSTQDVVVRTLSDVPSAAPQNLTLEARNSKSIMLHWQPPPAGTHSGQITGYKIRYRKVSRKSDVTESVGGTQLFQLIEGLERGTEYNFRIAAMTVNGTGPATDWVSAETFESDLDESRVPEVPSSLHVRPLVTSIVVSWTPPENQNIVVRGYAIGYGIGSPHAQTIKVDYKQRYYTIENLDPSSHYVITLKAFNNVGEGIPLYESAVTRPHSDTSEVDLFVINAPYTPVPDPSPMMPPVGVQASILSHDTIRITWADNSLPKNQKITDARYYTVRWKTNIPANTKYKTANATTLSYLVTGLKPNTLYEFSVMVTKGRRSSTWSMTAHGTTFELVPTSPPKDVTVVSKEGKPRTIIVNWQPPSEANGKITGYIIYYSTDVNAEIHDWVIEPVVGNRLTHQIQELTLDTPYYFKIQARNSKGMGPMSEAVQFRTPKAESSDKMPNDQASGSAGKGSRPVDVGPDYKPPLSGSNSPHGSPTSPLDSNMLLVIIVSVGVITIVIVVIVAVFCTRRTTSHQKKKRAACKSVNGSHKYKGNSKDVKPPDLWIHHERLELKPIDKSPDPNPIMTDTPIPRNSQDITPVDNSMDSNIHQRRNSYRGHESEDSMSTLAGRRGMRPKMMMPFDSQPPQPVISAHPIHSLDNPHHHFHSGSLASPTRSYLHHQVSPWPVGTSMSHSDRANSTESVRNTPSSDTMPASSSQPCADHQDPDSSSGAYLGSAQEEDAAQSLPTAHVRPSHPLKSFAVPAVPAAGSAYDPTLPSTPLLTQQAPSHPVHSVKTASIGTLGRTRPPMPVVVPSAPDVQETTRMLEDSESSYEPDELTKEMAHLEGLMKDLNAITTA
modifications: Neogenin - Accession No. AAC59662
B1 was tested, and the “electroporations that caused aberrant axonal paths” value [3] was 100%, the “increase of NeuN positive cells in cross-sections of the spinal cord” value ([1]; intrathecal application over 6 weeks) was “about 2 fold” and the “lesion volume compared to controls” value [1] was “did not significantly vary”. For the same molecule, the “increase in number of peri-lesional neurons (NeuN) compared to controls” value [1] was “about 2 fold”, the “reduction of the number of TUNEL+ cells” value [4] was “about 18 fold” and the “number of TUNEL+ cells” value [4] was 23±4. For the same molecule, the “functional recovery (BBB score and motor subscore) compared to controls” value ([2]; as early as 2-3 weeks post-SCI) was “significant functional recovery”, the “hindlimb coordination (footfalls), local application” value ([2]; intrathecal) was “fewer footfalls” and the “functional recovery (BBB score), local application” value ([2]; intrathecal, Alzet mini-osmotic pumps, as early as 2-3 weeks post-SCI) was “significant functional recovery”. The “hindlimb coordination, ladder-walk test (footfalls)” value ([2]; systemic treatment) was “fewer footfalls”.
